Columns and labels:
[1] = biological target: T1, VZV Orf24, C-terminally fused to the HA epitope (pcDNA-Orf24-HA, pHM4695) (varicella zoster virus (VZV) strain …, UniProt P09280 1-269); assay: coimmunoprecipitation, transiently transfected 293T cells
T1 sequence: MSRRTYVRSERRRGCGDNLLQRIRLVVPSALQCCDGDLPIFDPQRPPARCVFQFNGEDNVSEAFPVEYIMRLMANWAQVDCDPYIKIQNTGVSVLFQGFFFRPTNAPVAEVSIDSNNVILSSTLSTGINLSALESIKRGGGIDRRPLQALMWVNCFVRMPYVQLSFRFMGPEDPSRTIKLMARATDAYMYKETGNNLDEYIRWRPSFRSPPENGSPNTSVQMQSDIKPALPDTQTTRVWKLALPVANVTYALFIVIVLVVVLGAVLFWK

[2] = biological target: T2, HCMV pUL50, C-terminally fused to the HA epitope (pcDNA-UL50-HA, pHM2589) (human cytomegalovirus (HCMV) strain …, UniProt P16791 1-397); assay: as above
T2 sequence: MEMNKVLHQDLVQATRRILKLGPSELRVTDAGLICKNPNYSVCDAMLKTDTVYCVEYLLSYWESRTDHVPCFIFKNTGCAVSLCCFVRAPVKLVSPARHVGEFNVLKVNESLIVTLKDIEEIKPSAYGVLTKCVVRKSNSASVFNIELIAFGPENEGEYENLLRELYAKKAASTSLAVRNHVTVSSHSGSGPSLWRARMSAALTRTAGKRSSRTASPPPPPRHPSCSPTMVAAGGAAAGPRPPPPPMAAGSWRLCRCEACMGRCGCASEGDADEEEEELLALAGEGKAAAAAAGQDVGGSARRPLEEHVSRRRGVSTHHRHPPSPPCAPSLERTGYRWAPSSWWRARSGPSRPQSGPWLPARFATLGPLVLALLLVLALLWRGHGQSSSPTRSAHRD

[3] = biological target: T3, EBV BFLF2, C-terminally fused to the Flag epitope (pcDNA-BFLF2-Flag, pHM4698) (Epstein-Barr virus (EBV) strain B95-8, UniProt P0CK47 1-318); assay: as above
T3 construct: also called Flag-tagged BFLF2
T3 sequence: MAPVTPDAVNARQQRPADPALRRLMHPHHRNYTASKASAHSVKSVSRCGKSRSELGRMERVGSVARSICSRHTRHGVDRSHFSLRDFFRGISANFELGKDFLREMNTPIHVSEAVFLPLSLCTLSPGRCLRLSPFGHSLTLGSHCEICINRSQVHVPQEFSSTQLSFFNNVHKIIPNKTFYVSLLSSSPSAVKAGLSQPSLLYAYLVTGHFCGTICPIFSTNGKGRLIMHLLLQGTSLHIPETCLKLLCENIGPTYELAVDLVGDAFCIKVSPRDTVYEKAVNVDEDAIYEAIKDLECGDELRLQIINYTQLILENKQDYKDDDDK

pUL53 (50-292) = biological target: T4, pUL53 (50-292) (human cytomegalovirus (HCMV) strain …, UniProt P16794 50-292); assay: analytical size exclusion chromatography, coproduced in E. coli and also mixed in vitro
T4 sequence: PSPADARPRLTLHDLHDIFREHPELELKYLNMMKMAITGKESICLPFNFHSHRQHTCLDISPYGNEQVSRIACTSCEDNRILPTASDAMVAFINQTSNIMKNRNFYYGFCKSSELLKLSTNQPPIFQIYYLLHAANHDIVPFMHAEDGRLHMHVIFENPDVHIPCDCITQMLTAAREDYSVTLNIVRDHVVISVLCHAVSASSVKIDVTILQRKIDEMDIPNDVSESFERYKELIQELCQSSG

[4] = biological target: the molecule itself; assay: analytical size exclusion chromatography (Superdex 75 10/300)

B1: MCMV pM53, C-terminally fused to the Flag epitope (pcDNA-M53-Flag, pHM4718) (other)
chain: MFRSPEGEERDAADREEEEGGEARRRSRMMMSPRRVKRARHRPAGSGLRTPLRSPSACRCSSPSPERQWQQRRRAEKRSTTPTDPPPPPKRSAASAAAGAAAPESEYLNVKLSELHDVFQRHPDLEQKYLKIMKLPITGKESIRLPFDFKSHRQHTCLDLSPYGNDQVSRSACTTCKETTRLPTASDSMVAFINQTSNVMKHRKFYFGFRKNMELLKMAANQPQLFQIYYIVQSCVQEIVPLIYYDREMAHMQLIFEKETVHIPSQCIEQILTVAKDAYGVSLDIAHQRITLTARCLRLESSSLRIDVLMLQRKVDELEIPNETNEKFESYSLDYKDDDDK
notes: also called pM53-Flag; Flag-tagged pM53
[1]
  binding result: no binding
[2]
  binding result: binds

B2: MCMV pM50, C-terminally fused to the HA epitope (pcDNA-M50-HA, pHM4717) (other)
chain: MEIDKNVGADLISNTRRILRLDENELRITDTALICKNPNYSLCDAMLTTDIVYPVEYLLSYWECRSGRTACFVFKNTGCRVSLSCYIGFPERLKDLKRVCDFNFLSVNEALVVTLADIERIKPCDKGVLTNCVVRKSNSGMSYNIEVVAFGPDNEAEYQALLRDIYARRMTSVPTDCGSLICRRARCLAAAPPRRPPPPPPPGQRWGSLRKHGPVLTRRYAGGGGAAKNQPAAASPTSTSTSSPAAPSRDQDQTQRPPPAGDTNVTAAETTYSERTISFLTRHANAIHCALILAAAIALVLLWLLYWHAARSAGHP
notes: also called pM50-HA; HA-tagged pM50
[3]
  binding result: no binding

B3: pUL50 (1-181) (other)
chain: MEMNKVLHQDLVQATRRILKLGPSELRVTDAGLICKNPNYSVCDAMLKTDTVYCVEYLLSYWESRTDHVPCFIFKNTGCAVSLCCFVRAPVKLVSPARHVGEFNVLKVNESLIVTLKDIEEIKPSAYGVLTKCVVRKSNSASVFNIELIAFGPENEGEYENLLRELYAKKAASTSLAVRNH
pUL53 (50-292)
  binding result: binds
[4]
  binding result: no binding

From patent US20210396761A1 (AICURIS, published 2021)
